Measured values as given in US20260274955A1 (JANUX THERAPEUTICS, published 2026).

Target: Anti-CD28 Fab (SEQ ID NOs: 202, 203)
Test: phage binding ELISA on captured Fab;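 note: clonal phage supernatants added briefly to wells pre-incubated with CD28 antigen or with blocking buffer only, then washed, bound phage read by ELISA using HRP-coupled anti-M13 antibody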
Protocol: Clonal phage were harvested as crude supernatants and screened via standard ELISAs. […] Prior to the addition of clonal phage, wells were incubated with blocking buffer and CD28 antigen or blocking buffer alone. Without washing or aspirating, clonal phage supernatants were then added to the wells and incubated for a short time. Wells were then washed followed by detection of bound phage using a horse radish conjugated anti-M13 antibody.

Chain of Anti-CD28 Fab (SEQ ID NOs: 202, 203) (VH, as listed by the source, chain 1 of 2): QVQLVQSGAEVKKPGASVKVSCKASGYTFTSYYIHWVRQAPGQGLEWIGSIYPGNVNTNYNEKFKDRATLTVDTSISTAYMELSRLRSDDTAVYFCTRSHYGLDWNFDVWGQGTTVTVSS
Chain of Anti-CD28 Fab (SEQ ID NOs: 202, 203) (VL, as listed by the source, chain 2 of 2): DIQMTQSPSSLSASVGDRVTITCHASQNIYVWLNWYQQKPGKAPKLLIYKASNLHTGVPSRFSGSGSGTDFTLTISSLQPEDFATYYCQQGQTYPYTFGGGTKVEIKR

Binder	Anti-CD28 Fab signal
ECHWSMWAVGHACF [Phage-9]	1.77
YCAGHSPINIGKCL [Phage-10]	1.49
WCWDYKLWVPMTCP [Phage-11]	2.51
DCWWMFESYPGRCI [Phage-12]	1.65
YWYCSPSIVRCVLV [Phage-15]	1.51
WICDKSGSIMLCRA [Phage-17]	0.91
SCAAGASYAWPYCL [Phage-18]	1.49
DCPWLSGFSRPLLC [Phage-19]	1.27
YCAGMSTIQLWLKC [Phage-20]	2.16
YCAGHMPQYEVKCL [Phage-21]	0.22
YCAGHTEEHYVKCM [Phage-22]	0.62
YCMGHSHEHIWKCL [Phage-23]	0.87
YCAGHSHEYLAKCE [Phage-24]	0.86
YCDGHSPMYILKCL [Phage-79]	2.34
YCEGHSPEYMAKCL [Phage-74]	2.35
YCDGHLPEYMSKCL [Phage-75]	2.35
YCDGHLPQYMAKCL [Phage-76]	2.35
YCDGHLPEYMMKCL [Phage-78]	2.34
YCEGHLPQYMAKCL [Phage-81]	2.34
YCDGHSPLYMWKCL [Phage-82]	2.34
YCDGHLPMYMQKCL [Phage-83]	2.33
YCDGHLPIYMSKCL [Phage-84]	2.32
YCEGHLPEYMLKCL [Phage-87]	2.32
YCEGHAAEYMEKCL [Phage-104]	2.3
YCDGHLPQYMWKCL [Phage-107]	2.29
YCDGHVPEYMAKCL [Phage-108]	2.29
YCDGHLPMYMMKCL [Phage-109]	2.28
YCQGHAPEYMAKCL [Phage-110]	2.28
